Experimental data reported in publication PMC6882493 (Emerging Microbes & Infections, 2019).
Like-named read-outs stand apart in the source and are kept apart here.

Tests used:
PNGM-1 [1] = conditions: read-out: PNGM-1^a; 50 mM MES pH 7.0, 30 °C, 100 μM ZnCl2, 100 μg/ml BSA; footnote: identical to data from authors' earlier reference 13; cited from earlier work
Target sequence in this assay (Z9H0G7B495 1-372 limits assumed): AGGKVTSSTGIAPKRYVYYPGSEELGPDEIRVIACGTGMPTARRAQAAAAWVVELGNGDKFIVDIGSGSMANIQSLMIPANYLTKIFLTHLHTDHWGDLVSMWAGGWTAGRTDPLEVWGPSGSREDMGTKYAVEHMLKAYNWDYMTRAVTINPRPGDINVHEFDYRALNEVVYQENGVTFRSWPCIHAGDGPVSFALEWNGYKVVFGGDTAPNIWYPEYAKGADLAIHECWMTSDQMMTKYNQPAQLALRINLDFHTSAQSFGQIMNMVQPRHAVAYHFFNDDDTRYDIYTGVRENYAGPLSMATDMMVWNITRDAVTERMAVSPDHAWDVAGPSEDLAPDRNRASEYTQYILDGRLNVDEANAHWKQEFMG

PNGM-1 [2] = tested on: PNGM-1
Target sequence in this assay (Z9H0G7B495 1-372 H256A limits assumed): as the sequence (Z9H0G7B495 1-372 limits assumed) above, with H256A counted along it

PNGM-1 [3] = tested on: PNGM-1; remark: listed apart in the source
Target sequence in this assay (Z9H0G7B495 1-372 H256A limits assumed): as the sequence (Z9H0G7B495 1-372 limits assumed) above, with H256A counted along it

PNGM-1 [4] = conditions: read-out: PNGM-1^a; 50 mM MES pH 7.0, 30 °C, 100 μM ZnCl2, 100 μg/ml BSA; footnote: identical to data from authors' earlier reference 13; cited from earlier work; remark: listed apart in the source
Target sequence in this assay (Z9H0G7B495 1-372 limits assumed): as the sequence (Z9H0G7B495 1-372 limits assumed) above

PNGM-1 [5] = tested on: PNGM-1; remark: listed apart in the source
Target sequence in this assay (Z9H0G7B495 1-372 H256A limits assumed): as the sequence (Z9H0G7B495 1-372 limits assumed) above, with H256A counted along it

PNGM-1 [6] = conditions: read-out: PNGM-1^a; 50 mM MES pH 7.0, 30 °C, 100 μM ZnCl2, 100 μg/ml BSA; footnote: identical to data from authors' earlier reference 13; cited from earlier work; remark: listed apart in the source
Target sequence in this assay (Z9H0G7B495 1-372 limits assumed): as the sequence (Z9H0G7B495 1-372 limits assumed) above

PNGM-1 [7] = conditions: read-out: PNGM-1^a; 50 mM MES pH 7.0, 30 °C, 100 μM ZnCl2, 100 μg/ml BSA; footnote: identical to data from authors' earlier reference 13; cited from earlier work; remark: listed apart in the source
Target sequence in this assay (Z9H0G7B495 1-372 limits assumed): as above

PNGM-1 [8] = conditions: read-out: PNGM-1^a; 50 mM MES pH 7.0, 30 °C, 100 μM ZnCl2, 100 μg/ml BSA; footnote: identical to data from authors' earlier reference 13; cited from earlier work; remark: listed apart in the source
Target sequence in this assay (Z9H0G7B495 1-372 limits assumed): as above

PNGM-1 [9] = conditions: read-out: PNGM-1^a; 50 mM MES pH 7.0, 30 °C, 100 μM ZnCl2, 100 μg/ml BSA; footnote: identical to data from authors' earlier reference 13; cited from earlier work; remark: listed apart in the source
Target sequence in this assay (Z9H0G7B495 1-372 limits assumed): as above

[10] = tested on: C[C@@H](O)[C@H]1C(=O)N2C(C(=O)O)=C(SCCN=CN)C[C@H]12; test: purified protein; conditions: 50 mM MES pH 7.0, 30 °C, 100 μM ZnCl2, 100 μg/ml BSA
[11] = tested on: C[C@@H](O)[C@H]1C(=O)N2C(C(=O)O)=C(S[C@@H]3CN[C@H](C(=O)N(C)C)C3)[C@H](C)[C@H]12; test: purified protein; conditions: 50 mM MES pH 7.0, 30 °C, 100 μM ZnCl2, 100 μg/ml BSA
[12] = tested on: C[C@@H](O)[C@H]1C(=O)N2C(C(=O)O)=C(S[C@@H]3CN[C@H](C(=O)Nc4cccc(C(=O)O)c4)C3)[C@H](C)[C@H]12; test: purified protein; conditions: 50 mM MES pH 7.0, 30 °C, 100 μM ZnCl2, 100 μg/ml BSA

Compound	Km [10] [µM]	kcat [10] [s⁻¹]	kcat/Km [10] [M⁻¹ s⁻¹]	Km [11] [µM]	kcat [11] [s⁻¹]	Km [12] [µM]	kcat [12] [s⁻¹]	other results
CO/N=C(\C(=O)N[C@@H]1C(=O)N2C(C(=O)O)=C(COC(C)=O)CS[C@H]12)c1csc(N)n1 [cefotaxime]	–	–	–	–	–	–	–	Km (PNGM-1 [1]): 3.3 ± 0.1 µM; Km (PNGM-1 [2]): 3.1 ± 0.1 µM
CO[C@@]1(NC(=O)Cc2cccs2)C(=O)N2C(C(=O)O)=C(COC(N)=O)CS[C@@H]21 [cefoxitin]	–	–	–	–	–	–	–	Km (PNGM-1 [3]): 3.8 ± 0.1 µM; Km (PNGM-1 [4]): 4.3 ± 0.1 µM
CC(C)(O/N=C(\C(=O)N[C@@H]1C(=O)N2C(C(=O)[O-])=C(C[n+]3ccccc3)CS[C@H]12)c1csc(N)n1)C(=O)O [ceftazidime]	–	–	–	–	–	–	–	Km (PNGM-1 [5]): 15.4 ± 0.1 µM; Km (PNGM-1 [6]): 15.9 ± 0.2 µM
C[C@@H](O)[C@H]1C(=O)N2C(C(=O)O)=C(S[C@@H]3CN[C@H](C(=O)Nc4cccc(C(=O)O)c4)C3)[C@H](C)[C@H]12 [ertapenem]	–	–	–	–	–	–	–	Km (PNGM-1 [7]): 1.9 ± 0.1 µM
C[C@@H](O)[C@H]1C(=O)N2C(C(=O)O)=C(SCCN=CN)C[C@H]12 [imipenem]	–	–	–	–	–	–	–	Km (PNGM-1 [8]): 2 ± 0.1 µM
C[C@@H](O)[C@H]1C(=O)N2C(C(=O)O)=C(S[C@@H]3CN[C@H](C(=O)N(C)C)C3)[C@H](C)[C@H]12 [meropenem]	–	–	–	–	–	–	–	Km (PNGM-1 [9]): 1.9 ± 0.1 µM
AIM-1 (Pseudomonas aeruginosa)	3.8 ± 0.1	11.128 ± 0.0001	2.9e+06 ± 200000	4.6 ± 0.1	15.409 ± 0.0001	5.0 ± 0.1	12.376 ± 0.0001	kcat/Km [12]: 2.5e+06 ± 200000 M⁻¹ s⁻¹
FEZ-1 (Fluoribacter gormanii)	3.5 ± 0.1	0.763 ± 0.001	220000 ± 10000	4.2 ± 0.1	0.773 ± 0.001	4.6 ± 0.1	0.667 ± 0.001	kcat/Km [11]: 180000 ± 10000 M⁻¹ s⁻¹
GOB-18 (Elizabethkingia meningoseptica)	4.8 ± 0.1	6.188 ± 0.003	1.3e+06 ± 200000	5.7 ± 0.1	8.568 ± 0.001	6.3 ± 0.1	6.882 ± 0.002	kcat/Km [11]: 1.5e+06 ± 100000 M⁻¹ s⁻¹; kcat/Km [12]: 1.1e+06 ± 200000 M⁻¹ s⁻¹
